B1: s-OPA1 K579R (domain or fragment, human, UniProt O60313-1 195-960, looked up)
chain: ATDRGSESDKHFRKVSDKEKIDQLQEELLHTQLKYQRILERLEKENKELRKLVLQKDDKGIHHRKLKKSLIDMYSEVLDVLSDYDASYNTQDHLPRVVVVGDQSAGKTSVLEMIAQARIFPRGSGEMMTRSPVKVTLSEGPHHVALFKDSSREFDLTKEEDLAALRHEIELRMRKNVKEGCTVSPETISLNVKGPGLQRMVLVDLPGVINTVTSGMAPDTKETIFSISKAYMQNPNAIILCIQDGSVDAERSIVTDLVSQMDPHGRRTIFVLTKVDLAEKNVASPSRIQQIIEGKLFPMKALGYFAVVTGKGNSSESIEAIREYEEEFFQNSKLLKTSMLKAHQVTTRNLSLAVSDCFWKMVRESVEQQADSFKATRFNLETEWRNNYPRLRELDRNELFEKAKNEILDEVISLSQVTPKHWEEILQQSLWERVSTHVIENIYLPAAQTMNSGTFNTTVDIKLKQWTDKQLPNKAVEVAWETLQEEFSRFMTEPKGKEHDDIFDKLKEAVKEESIKRHKWNDFAEDSLRVIQHNALEDRSISDKQQWDAAIYFMEEALQARLKDTENAIENMVGPDWKKRWLYWKNRTQEQCVHNETKNELEKMLKCNEEHPAYLASDEITTVRKNLESRGVEVDPSLIKDTWHQVYRRHFLKTALNHCNLCRRGFYYYQRHFVDSELECNDVVLFWRIQRMLAITANTLRQQLTNTEVRRLEKNVKEVLEDFAEDGEKKIKLLTGKRVQLAEDLKKVREIQEKLDAFIEALHQEK
modifications: endogenous lysine acetylation, sites listed in Figure 2c
notes: Optic Atrophy 1 (OPA1), human, short form (s-OPA1), residues 195-960; domain model of isoform 1; Gene bought from Genscript in the pGS-21a vector; source: E. coli BL21 (DE3), purified (glutathione resin, 3C protease cleavage, size exclusion chromatography)
B2: s-OPA1 K663Q (domain or fragment, human, UniProt O60313-1 195-960, looked up)
chain: ATDRGSESDKHFRKVSDKEKIDQLQEELLHTQLKYQRILERLEKENKELRKLVLQKDDKGIHHRKLKKSLIDMYSEVLDVLSDYDASYNTQDHLPRVVVVGDQSAGKTSVLEMIAQARIFPRGSGEMMTRSPVKVTLSEGPHHVALFKDSSREFDLTKEEDLAALRHEIELRMRKNVKEGCTVSPETISLNVKGPGLQRMVLVDLPGVINTVTSGMAPDTKETIFSISKAYMQNPNAIILCIQDGSVDAERSIVTDLVSQMDPHGRRTIFVLTKVDLAEKNVASPSRIQQIIEGKLFPMKALGYFAVVTGKGNSSESIEAIREYEEEFFQNSKLLKTSMLKAHQVTTRNLSLAVSDCFWKMVRESVEQQADSFKATRFNLETEWKNNYPRLRELDRNELFEKAKNEILDEVISLSQVTPKHWEEILQQSLWERVSTHVIENIYLPAAQTMNSGTFNTTVDIKLKQWTDQQLPNKAVEVAWETLQEEFSRFMTEPKGKEHDDIFDKLKEAVKEESIKRHKWNDFAEDSLRVIQHNALEDRSISDKQQWDAAIYFMEEALQARLKDTENAIENMVGPDWKKRWLYWKNRTQEQCVHNETKNELEKMLKCNEEHPAYLASDEITTVRKNLESRGVEVDPSLIKDTWHQVYRRHFLKTALNHCNLCRRGFYYYQRHFVDSELECNDVVLFWRIQRMLAITANTLRQQLTNTEVRRLEKNVKEVLEDFAEDGEKKIKLLTGKRVQLAEDLKKVREIQEKLDAFIEALHQEK
modifications: endogenous lysine acetylation, sites listed in Figure 2c
notes: as for B1
B3: s-OPA1 K663R (domain or fragment, human, UniProt O60313-1 195-960, looked up)
chain: ATDRGSESDKHFRKVSDKEKIDQLQEELLHTQLKYQRILERLEKENKELRKLVLQKDDKGIHHRKLKKSLIDMYSEVLDVLSDYDASYNTQDHLPRVVVVGDQSAGKTSVLEMIAQARIFPRGSGEMMTRSPVKVTLSEGPHHVALFKDSSREFDLTKEEDLAALRHEIELRMRKNVKEGCTVSPETISLNVKGPGLQRMVLVDLPGVINTVTSGMAPDTKETIFSISKAYMQNPNAIILCIQDGSVDAERSIVTDLVSQMDPHGRRTIFVLTKVDLAEKNVASPSRIQQIIEGKLFPMKALGYFAVVTGKGNSSESIEAIREYEEEFFQNSKLLKTSMLKAHQVTTRNLSLAVSDCFWKMVRESVEQQADSFKATRFNLETEWKNNYPRLRELDRNELFEKAKNEILDEVISLSQVTPKHWEEILQQSLWERVSTHVIENIYLPAAQTMNSGTFNTTVDIKLKQWTDRQLPNKAVEVAWETLQEEFSRFMTEPKGKEHDDIFDKLKEAVKEESIKRHKWNDFAEDSLRVIQHNALEDRSISDKQQWDAAIYFMEEALQARLKDTENAIENMVGPDWKKRWLYWKNRTQEQCVHNETKNELEKMLKCNEEHPAYLASDEITTVRKNLESRGVEVDPSLIKDTWHQVYRRHFLKTALNHCNLCRRGFYYYQRHFVDSELECNDVVLFWRIQRMLAITANTLRQQLTNTEVRRLEKNVKEVLEDFAEDGEKKIKLLTGKRVQLAEDLKKVREIQEKLDAFIEALHQEK
modifications: endogenous lysine acetylation, sites listed in Figure 2c
notes: as for B1

Target: the molecule itself
Assay: mass photometry; protein in solution at 75 nM final; 20 mM HEPES-NaOH pH 7.5, 130 mM NaCl, 10 mM KCl, 2 mM MgCl2, 2 mM DTT, 2% glycerol; Refeyn mass photometer; mass measured three times for each protein

Stoichiometry N, 2:
B1
B2
B3

— article PMC12120360, “Lysine acetylation modulates s‐OPA1 GTPase activity and oligomerization in mitochondrial membrane remodeling” (Protein Science : A Publication of the Protein Society, 2025)
